Legend:
[1] = molecular target: Recombinant human his-tagged IGF 1R extracellular domain protein (human) (UniProt P08069); assay: SPR, captured IgG, IGF-1R ECD-his analyte, dissociation pH 6
[2] = molecular target: Recombinant human his-tagged IGF 1R extracellular domain protein (human) (UniProt P08069); assay: SPR, captured IgG, IGF-1R ECD-his analyte, dissociation pH 7.4

| Binder | Kd [1] | koff [1] | kon [1] | Kd [2] | koff [2] | kon [2] |
| --- | --- | --- | --- | --- | --- | --- |
| VRDN-02568 (antibody, V domains shown) VH: EVQLVQSGGGLVKPGGSLRLSCAASGFTFSSFHMHWVRQAPGKGLEWISVIHTRGATYYADSVKGRFTISRDNAKNSLYLQMNSLRAEDTAVYYCARLGNFYYGHDVWGQGTTVTVSS VL: EIVLTQSPGTLSVSPGERATLSCRASQSIGSSLHWYQQKPGQAPRLLIKYASQSLSGIPDRFSGSGSGTDFTLTISRLEPEDFAVYYCHQSSRLPHTFGQGTKVEIK | 29.9 nM | 0.000129 s⁻¹ | 4320 M⁻¹ s⁻¹ |  |  |  |
| VRDN-02555 (antibody, V domains shown) VH: EVQLVQSGGGLVKPGGSLRLSCAASGFTFSSFAMHWVRQAPGKGLEWISVIDTRGATYYADSVKGRFTISRDNAKNSLYLQMNSLRAEDTAVYYCHRLGNFYYGMDVWGQGTTVTVSS VL: EIVLTQSPGTLSVSPGERATLSCRASQSIGSSLHWYQQKPGQAPRLLIKHASQSLSGIPDRFSGSGSGTDFTLTISRLEPEDFAVYYCHQSSRLPHTFGQGTKVEIK | 0.851 nM | 0.000418 s⁻¹ | 491000 M⁻¹ s⁻¹ |  |  |  |
| VRDN-02538 (antibody, V domains shown) VH: EVQLVQSGGGLVKPGGSLRLSCAASGFTFSSFAMHWVRQAPGKGLEWISVIDTRGATYYADSVKGRFTISRDNAKNSLYLQMNSLRAEDTAVYYCARLGNFYYGMDVWGQGTTVTVSS VL: EIVLTQSPGTLSVSPGERATLSCRASQSIGSSLHWYQQKPGQAPRLLIHYASQSLSGIPDRFSGSGSGTDFTLTISRLEPEDFAVYYCHQSSRLPHTFGQGTKVEIK | 0.0463 nM | 1e-06 s⁻¹ | 21600 M⁻¹ s⁻¹ |  |  |  |
| VRDN-02553 (antibody, V domains shown) VH: EVQLVQSGGGLVKPGGSLRLSCAASGFTFSSFHMHWVRQAPGKGLEWISVIDTRGATYYADSVKGRFTISRDNAKNSLYLQMNSLRAEDTAVYYCARLGNFYYGMDVWGQGTTVTVSS VL: EIVLTQSPGTLSVSPGERATLSCRASQSIGSSLHWYQQKPGQAPRLLIKHASQSLSGIPDRFSGSGSGTDFTLTISRLEPEDFAVYYCHQSSRLPHTFGQGTKVEIK | 1.56 nM | 0.000534 s⁻¹ | 341000 M⁻¹ s⁻¹ |  |  |  |
| VRDN-02563 (antibody, V domains shown) VH: EVQLVQSGGGLVKPGGSLRLSCAASGFTFSSFAMHWVRQAPGKGLEWISVIHTRGATYYADSVKGRFTISRDNAKNSLYLQMNSLRAEDTAVYYCARLGNFYYHMDVWGQGTTVTVSS VL: EIVLTQSPGTLSVSPGERATLSCRASQSIGSSLHWYQQKPGQAPRLLIKYASQSLSGIPDRFSGSGSGTDFTLTISRLEPEDFAVYYCHQSSRLPHTFGQGTKVEIK | 3.46 nM | 0.000353 s⁻¹ | 102000 M⁻¹ s⁻¹ |  |  |  |
| VRDN-02518 (antibody, V domains shown) VH: EVQLVQSGGGLVKPGGSLRLSCAASGFTFSSFAMHWVRQAPGKGLEWISVIDTRGATYYADSVKGRFTISRDNAKNSLYLQMNSLRAEDTAVYYCARHGNFYYGMDVWGQGTTVTVSS VL: EIVLTQSPGTLSVSPGERATLSCRASQSIGSSLHWYQQKPGQAPRLLIKYASQSLSGIPDRFSGSGSGTDFTLTISRLEPEDFAVYYCHQSSRLPHTFGQGTKVEIK | 0.0385 nM | 1e-06 s⁻¹ | 26000 M⁻¹ s⁻¹ | 0.549 nM | 6.31e-05 s⁻¹ | 115000 M⁻¹ s⁻¹ |
| VRDN-02519 (antibody, V domains shown) VH: EVQLVQSGGGLVKPGGSLRLSCAASGFTFSSFAMHWVRQAPGKGLEWISVIDTRGATYYADSVKGRFTISRDNAKNSLYLQMNSLRAEDTAVYYCARLHNFYYGMDVWGQGTTVTVSS VL: EIVLTQSPGTLSVSPGERATLSCRASQSIGSSLHWYQQKPGQAPRLLIKYASQSLSGIPDRFSGSGSGTDFTLTISRLEPEDFAVYYCHQSSRLPHTFGQGTKVEIK | 16.9 nM | 0.000627 s⁻¹ | 37100 M⁻¹ s⁻¹ | 10.5 nM | 0.00366 s⁻¹ | 348000 M⁻¹ s⁻¹ |
| VRDN-02571 (antibody, V domains shown) VH: EVQLVQSGGGLVKPGGSLRLSCAASGFTFSSFAMHWVRQAPGKGLEWISVIHTRGATYYADSVKGRFTISRDNAKNSLYLQMNSLRAEDTAVYYCARLGNFYYGHDVWGQGTTVTVSS VL: EIVLTQSPGTLSVSPGERATLSCRASQSIGSSLHWYQQKPGQAPRLLIKHASQSLSGIPDRFSGSGSGTDFTLTISRLEPEDFAVYYCHQSSRLPHTFGQGTKVEIK | 2.15 nM | 0.000344 s⁻¹ | 160000 M⁻¹ s⁻¹ |  |  |  |
| VRDN-02570 (antibody, V domains shown) VH: EVQLVQSGGGLVKPGGSLRLSCAASGFTFSSFHMHWVRQAPGKGLEWISVIDTRGATYYADSVKGRFTISRDNAKNSLYLQMNSLRAEDTAVYYCARLGNFYYGHDVWGQGTTVTVSS VL: EIVLTQSPGTLSVSPGERATLSCRASQSIGSSLHWYQQKPGQAPRLLIKHASQSLSGIPDRFSGSGSGTDFTLTISRLEPEDFAVYYCHQSSRLPHTFGQGTKVEIK | 1.76 nM | 0.000376 s⁻¹ | 214000 M⁻¹ s⁻¹ |  |  |  |

Continued by falling Kd [1], values first:

| Kd [1] | koff [1] | kon [1] | Kd [2] | koff [2] | kon [2] | Binder |
| --- | --- | --- | --- | --- | --- | --- |
| 16.8 nM | 0.00196 s⁻¹ | 117000 M⁻¹ s⁻¹ | 2.35 nM | 0.000418 s⁻¹ | 178000 M⁻¹ s⁻¹ | VRDN-02516 (antibody, V domains shown) VH: EVQLVQSGGGLVKPGGSLRLSCAASGFTFSSFAMHWVRQAPGKGLEWISVIDTRGATYYADSVKGRFTISRDNAKNSLYLQMNSLRAEDTAVYYCHRLGNFYYGMDVWGQGTTVTVSS VL: EIVLTQSPGTLSVSPGERATLSCRASQSIGSSLHWYQQKPGQAPRLLIKYASQSLSGIPDRFSGSGSGTDFTLTISRLEPEDFAVYYCHQSSRLPHTFGQGTKVEIK |
| 5.07 nM | 0.000265 s⁻¹ | 52300 M⁻¹ s⁻¹ | 10.7 nM | 0.00264 s⁻¹ | 247000 M⁻¹ s⁻¹ | VRDN-02517 (antibody, V domains shown) VH: EVQLVQSGGGLVKPGGSLRLSCAASGFTFSSFAMHWVRQAPGKGLEWISVIDTRGATYYADSVKGRFTISRDNAKNSLYLQMNSLRAEDTAVYYCAHLGNFYYGMDVWGQGTTVTVSS VL: EIVLTQSPGTLSVSPGERATLSCRASQSIGSSLHWYQQKPGQAPRLLIKYASQSLSGIPDRFSGSGSGTDFTLTISRLEPEDFAVYYCHQSSRLPHTFGQGTKVEIK |
| 3.15 nM | 0.00017 s⁻¹ | 53900 M⁻¹ s⁻¹ |  |  |  | VRDN-02558 (antibody, V domains shown) VH: EVQLVQSGGGLVKPGGSLRLSCAASGFTFSSFHMHWVRQAPGKGLEWISVIHTRGATYYADSVKGRFTISRDNAKNSLYLQMNSLRAEDTAVYYCARLGNFYYGMDVWGQGTTVTVSS VL: EIVLTQSPGTLSVSPGERATLSCRASQSIGSSLHWYQQKPGQAPRLLIKYASQSLSGIPDRFSGSGSGTDFTLTISRLEPEDFAVYYCHQSSRLPHTFGQGTKVEIK |
| 1.64 nM | 0.000539 s⁻¹ | 329000 M⁻¹ s⁻¹ |  |  |  | VRDN-02561 (antibody, V domains shown) VH: EVQLVQSGGGLVKPGGSLRLSCAASGFTFSSFHMHWVRQAPGKGLEWISVIDTRGATYYADSVKGRFTISRDNAKNSLYLQMNSLRAEDTAVYYCARLGNFYYGHDVWGQGTTVTVSS VL: EIVLTQSPGTLSVSPGERATLSCRASQSIGSSLHWYQQKPGQAPRLLIKYASQSLSGIPDRFSGSGSGTDFTLTISRLEPEDFAVYYCHQSSRLPHTFGQGTKVEIK |
| 1.53 nM | 0.000152 s⁻¹ | 99500 M⁻¹ s⁻¹ |  |  |  | VRDN-02554 (antibody, V domains shown) VH: EVQLVQSGGGLVKPGGSLRLSCAASGFTFSSFAMHWVRQAPGKGLEWISVIHTRGATYYADSVKGRFTISRDNAKNSLYLQMNSLRAEDTAVYYCARLGNFYYGMDVWGQGTTVTVSS VL: EIVLTQSPGTLSVSPGERATLSCRASQSIGSSLHWYQQKPGQAPRLLIKHASQSLSGIPDRFSGSGSGTDFTLTISRLEPEDFAVYYCHQSSRLPHTFGQGTKVEIK |
| 1.51 nM | 0.000516 s⁻¹ | 342000 M⁻¹ s⁻¹ |  |  |  | VRDN-02569 (antibody, V domains shown) VH: EVQLVQSGGGLVKPGGSLRLSCAASGFTFSSFHMHWVRQAPGKGLEWISVIHTRGATYYADSVKGRFTISRDNAKNSLYLQMNSLRAEDTAVYYCARLGNFYYGMDVWGQGTTVTVSS VL: EIVLTQSPGTLSVSPGERATLSCRASQSIGSSLHWYQQKPGQAPRLLIKHASQSLSGIPDRFSGSGSGTDFTLTISRLEPEDFAVYYCHQSSRLPHTFGQGTKVEIK |
| 1.48 nM | 0.000507 s⁻¹ | 344000 M⁻¹ s⁻¹ |  |  |  | VRDN-02564 (antibody, V domains shown) VH: EVQLVQSGGGLVKPGGSLRLSCAASGFTFSSFAMHWVRQAPGKGLEWISVIHTRGATYYADSVKGRFTISRDNAKNSLYLQMNSLRAEDTAVYYCARLGNFYYGHDVWGQGTTVTVSS VL: EIVLTQSPGTLSVSPGERATLSCRASQSIGSSLHWYQQKPGQAPRLLIKYASQSLSGIPDRFSGSGSGTDFTLTISRLEPEDFAVYYCHQSSRLPHTFGQGTKVEIK |
| 1.34 nM | 0.00018 s⁻¹ | 135000 M⁻¹ s⁻¹ |  |  |  | VRDN-02562 (antibody, V domains shown) VH: EVQLVQSGGGLVKPGGSLRLSCAASGFTFSSFAMHWVRQAPGKGLEWISVIHTRGATYYADSVKGRFTISRDNAKNSLYLQMNSLRAEDTAVYYCHRLGNFYYGMDVWGQGTTVTVSS VL: EIVLTQSPGTLSVSPGERATLSCRASQSIGSSLHWYQQKPGQAPRLLIKYASQSLSGIPDRFSGSGSGTDFTLTISRLEPEDFAVYYCHQSSRLPHTFGQGTKVEIK |
| 0.0259 nM | 1e-06 s⁻¹ | 38600 M⁻¹ s⁻¹ | 0.911 nM | 0.00015 s⁻¹ | 165000 M⁻¹ s⁻¹ | VRDN-02501 (antibody, V domains shown) VH: EVQLVQSGGGLVKPGGSLRLSCAASHFTFSSFAMHWVRQAPGKGLEWISVIDTRGATYYADSVKGRFTISRDNAKNSLYLQMNSLRAEDTAVYYCARLGNFYYGMDVWGQGTTVTVSS VL: EIVLTQSPGTLSVSPGERATLSCRASQSIGSSLHWYQQKPGQAPRLLIKYASQSLSGIPDRFSGSGSGTDFTLTISRLEPEDFAVYYCHQSSRLPHTFGQGTKVEIK |
| 0.0242 nM | 1e-06 s⁻¹ | 41400 M⁻¹ s⁻¹ | 0.0069 nM | 1e-06 s⁻¹ | 145000 M⁻¹ s⁻¹ | VRDN-02520 (antibody, V domains shown) VH: EVQLVQSGGGLVKPGGSLRLSCAASGFTFSSFAMHWVRQAPGKGLEWISVIDTRGATYYADSVKGRFTISRDNAKNSLYLQMNSLRAEDTAVYYCARLGHFYYGMDVWGQGTTVTVSS VL: EIVLTQSPGTLSVSPGERATLSCRASQSIGSSLHWYQQKPGQAPRLLIKYASQSLSGIPDRFSGSGSGTDFTLTISRLEPEDFAVYYCHQSSRLPHTFGQGTKVEIK |

Source: US20240343814A1
